Positions count from the first letter of the chain named.

B1: mHE6 (antibody, V domains shown)
VH: EVQLQQSGPDLVKPGTSVKMSCKASGYTFTDYYMHWVRQSHGKSLEWIGYINPNNGDAIYNQKFKGKATLTVNKSSTTAYMALRSLTSEDSAVYFCATYDYGGDFYFDVWGTGTTVTVSS
VL: DIELTQSPALMSASPGEKVTMTCSASSSVSYMYWYQQKPRSSPKPWIYLTSNLASGVPARFSGSGSGTSYSLTISSMEAEDAATYYCQQWSRNPLTFGAGTKLELKR
B2: mHE1 (antibody, V domains shown)
VH: EVKLQESGPGLVKPSQSLSLTCSVTGYSITSGYYWNWIRQFPGNKLEWMGYISYDGSNNYNPSLKNRISITRDTSKNQFFLNLNSVTTEDTATYYCARVDWDGDAMDYWGQGTSVTVSS
VL: DIVLTQSPASLAVSLGQRATISCRASESVDNYGIRLMHWYQQKSGQPPKLLIHRASNLESGIPARFSGSGSRTDFTLTINPVETDDVATYYCQQSNKDPFTFGSGTKLEIKR
B3: mHE2 (antibody, V domains shown)
VH: B2 VH with N82K, V99M
VL: B2 VL with R35S, S44P, H53Y, F100P, S104A, I110L
B4: mHE5 (antibody, V domains shown)
VH: B2 VH with K3Q, N82K, R98S, V99Y, W101Y, A105W, M106F, D107A, S114L, S119A
VL: B2 VL with N31H, I34S, R35S, L36F, S44P, H53Y, L58P, F100P, S104G
B5: mHE4 (antibody, V domains shown)
VH: EVQLVESGGGLVKPGGSLKLSCAASGFTFSSYVMSWVRQTPEKRLEWVATISDGDSSTYYPDNVKGRFTISRDNAKNNLFLQMSHLKSEDTAMYFCARDKGHGYDEGAFVYWGQGTLVTVSA
VL: DIQMTQSPASLSASVEETVTITCRASENIYSYLAWYQQKQGKSPQLLVYNAKTLAEGVPSRFSGSGSGTEFSLKINSLQPEDFGSYYCQNHYGTPYTFGGGTKLEIKQ

The target in one test is human HER3-ECD-His (human) (UniProt P21860). Nature of the test: ELISA on coated human HER3.
B1: the OD450 came to 2.12 OD450.

With B2, the OD450 was determined as 1.86 OD450.

As for B3, the OD450 stood at 1.96 OD450.

With B4, the OD450 turned out to be 1.9 OD450.

On to B5, for which the OD450 was 2.07 OD450.

The next test concerns the target human HER3 on cells (human) (UniProt P21860). In words: FACS on Human HER3-CHO cells.
As for B1, the MFI amounted to 205 MFI.

In the case of B2, the MFI was 173 MFI.

In the case of B3, the MFI is 195 MFI.

For B4, the MFI is 224 MFI.

For the molecule B5, the MFI was 199 MFI.

In another test the target is cynomolgus HER3-ECD-His (cynomolgus monkey) (UniProt G7PIG5). In words: ELISA on coated Cyno HER3. On the technique in general: An ELISA detects its analyte on a solid surface through an enzyme-linked reagent.
cynomolgus HER3-ECD-His (cynomolgus monkey), sequence (G7PIG5 entry or part of it): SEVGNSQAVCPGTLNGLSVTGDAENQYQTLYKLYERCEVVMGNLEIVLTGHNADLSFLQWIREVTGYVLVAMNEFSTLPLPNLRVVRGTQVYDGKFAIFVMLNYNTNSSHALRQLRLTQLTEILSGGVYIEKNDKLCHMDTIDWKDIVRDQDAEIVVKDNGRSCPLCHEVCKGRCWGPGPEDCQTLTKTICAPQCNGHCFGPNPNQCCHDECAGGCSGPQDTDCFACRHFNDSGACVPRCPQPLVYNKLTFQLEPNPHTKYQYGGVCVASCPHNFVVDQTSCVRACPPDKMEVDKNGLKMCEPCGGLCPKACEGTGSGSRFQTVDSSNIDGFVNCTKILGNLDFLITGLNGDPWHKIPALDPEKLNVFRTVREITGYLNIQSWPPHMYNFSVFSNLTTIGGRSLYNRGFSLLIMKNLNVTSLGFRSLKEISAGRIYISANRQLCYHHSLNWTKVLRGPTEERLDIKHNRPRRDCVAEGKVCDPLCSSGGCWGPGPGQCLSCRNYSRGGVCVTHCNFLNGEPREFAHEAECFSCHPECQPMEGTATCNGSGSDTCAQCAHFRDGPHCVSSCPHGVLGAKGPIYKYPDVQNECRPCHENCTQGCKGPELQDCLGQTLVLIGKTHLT
Molecule B1 yielded an OD450 of 1.51 OD450.

B2 showed an OD450 of 1.77 OD450.

For B3, the OD450 came to 1.77 OD450.

For B4, the OD450 is 1.82 OD450.

For the molecule B5, the OD450 was found to be 1.87 OD450.

Values taken from patent EP4725966A1, “HUMAN EPIDERMAL GROWTH FACTOR 3 ANTIBODY, PREPARATION METHOD THEREFOR, AND USE THEREOF” (priority 2023, dated 2024).
